In paper PMC8104961:
Where “and” joins values, the source holds several entries; their conditions need not be identical. Equal values may be shown once.

Key:
[1] = molecular target: Sc Ire1-KR(K992D,Y1059R) (S. cerevisiae); test: AUC; sedimentation equilibrium, 20°C; 2.5, 5 and 10 μM protein at 7,000, 10,000 and 14,000 rpm; 50 mM Tris/HCl pH 7.5, 200 mM NaCl, 2 mM Mg(OAc)2, 2 mM TCEP; global fit to a self-association equilibrium model; monomer-dimer equilibrium constant
[2] = molecular target: Sc Ire1-KR(K992D,Y1059R) (S. cerevisiae); test: cross-linking; 12.5 μM Ire1-KR, 2 mM ADP, 1 mM BS3 (bissulfosuccinimidyl suberate), 2 h on ice; 50 mM HEPES, 200 mM NaCl, 2 mM Mg(OAc)2, 2 mM TCEP, 10% glycerol; SDS-PAGE, coomassie blue or SYPRO Ruby
[3] = molecular target: S. cerevisiae Ire1 kinase/RNase domains (WT Sc Ire1-KR) (S. cerevisiae); test: AUC; sedimentation equilibrium, 20°C; 2.5, 5 and 10 μM protein at 7,000, 10,000 and 14,000 rpm; 50 mM Tris/HCl pH 7.5, 200 mM NaCl, 2 mM Mg(OAc)2, 2 mM TCEP; global fit to a self-association equilibrium model; monomer-dimer equilibrium constant
[4] = molecular target: Sc Ire1-KR(K992R,Y1059D) (S. cerevisiae); test: cross-linking; 12.5 μM Ire1-KR, 2 mM ADP, 1 mM BS3 (bissulfosuccinimidyl suberate), 2 h on ice; 50 mM HEPES, 200 mM NaCl, 2 mM Mg(OAc)2, 2 mM TCEP, 10% glycerol; SDS-PAGE, coomassie blue or SYPRO Ruby

Q: What does the source list for “Sc Ire1-KR(K992D,Y1059R) (domain or fragment)”?
A: Kd [1]: 0.98 µM; stoichiometry N [2]: 2 and 4

Q: With “S. cerevisiae Ire1 kinase/RNase domains (WT Sc Ire1-KR) (domain or fragment)” as the substance, how does the Kd [3] read?
A: 57 µM

Q: With “Sc Ire1-KR(K992R,Y1059D) (domain or fragment)” as the substance, how does the stoichiometry N [4] read?
A: 2
